From US20250155438A1 (KING ABDULAZIZ UNIVERSITY, published 2025)

Molecular target: T1, SARS-CoV-2 nucleocapsid protein (SARS-CoV-2, UniProt P0DTC9 1-419)
T1 construct: also called NCAP; N-capsid

B1: anti-NCAP-2 nanobody (VHH, not shown: small tags and cut ends)
VHH: QVQLVESGGALMQAGGSLRLSCAVSGIRLGYYTIAWFRQAPGKEREGISCISRSEGSTYYADSVKGRFTISTENAENTVYLQMNSLKPDDTAVYYCAVDFVPASHCAVANTKGYDYWGQGTQVTVSS
notes: also called N Capsid nanobody NCAP-2
Question: Does B1 bind?
Answer: binds
